# Assay results from patent publication US20030145347.
# How the values were obtained:
# [1] = target: rice thioredoxin with S-tag (recombinant, expressed in E. coli from pNOV4113)
# [2] = target: soybean thioredoxin prep without S-tag (recombinant, expressed in E. coli from pNOV4112, S-Tag removed by thrombin cleavage)
# [3] = target: soybean thioredoxin with S-tag (recombinant, expressed in E. coli from pNOV4112)
# [4] = target: wheat thioredoxin with S-tag (recombinant, expressed in E. coli from pNOV4114)
protein,measurement,setting,value
"E. coli thioredoxin reductase (T-7915, Sigma, St. Louis, Mo.) (protein) GTTKHSKLLILGSGPAGYTAAVYAARANLQPVLITGMEKGGQLTTTTEVENWPGDPNDLTGPLLMERMHEHATKFETEIIFDHINKVDLQNRPFRLNGDNGEYTCDALIIATGASARYLGLPSEEAFKGRGVSACATCDGFFYRNQKVAVIGGGNTAVEEALYLSNIASEVHLIHRRDGFRAEKILIKRLMDKVENGNIILHTNRTLEEVTGDQMGVTGVRLRDTQNSDNIESLDVAGLFVAIGHSPNTAIFEGQLELENGYIKVQSGIHGNATQTSIPGVFAAGDVMDHIYRQAITSAGTGCMAALDAERYLDGLADAK","reduction of thioredoxin, DTNB assay",[1],can also reduce rice thioredoxin
same,"reduction of thioredoxin, DTNB assay",[2],can reduce soybean thioredoxin with and without the S-tag
same,"reduction of thioredoxin, DTNB assay",[3],can reduce soybean thioredoxin with and without the S-tag
same,"reduction of thioredoxin, DTNB assay",[4],Wheat thioredoxin can be reduced by E. coli thioredoxin reductase
